Measured values: patent US20240018242

What was measured:
[1] = molecular target: FH-AGO2 (Flag-HA-tagged wild type AGO2 expressed in MCF-7 cells) (UniProt Q9UKV8)
FH-AGO2-K726R = FH-AGO2-K726R (UniProt Q9UKV8)
FH-AGO2-K726R, sequence (Q9UKV8 whole entry K726R): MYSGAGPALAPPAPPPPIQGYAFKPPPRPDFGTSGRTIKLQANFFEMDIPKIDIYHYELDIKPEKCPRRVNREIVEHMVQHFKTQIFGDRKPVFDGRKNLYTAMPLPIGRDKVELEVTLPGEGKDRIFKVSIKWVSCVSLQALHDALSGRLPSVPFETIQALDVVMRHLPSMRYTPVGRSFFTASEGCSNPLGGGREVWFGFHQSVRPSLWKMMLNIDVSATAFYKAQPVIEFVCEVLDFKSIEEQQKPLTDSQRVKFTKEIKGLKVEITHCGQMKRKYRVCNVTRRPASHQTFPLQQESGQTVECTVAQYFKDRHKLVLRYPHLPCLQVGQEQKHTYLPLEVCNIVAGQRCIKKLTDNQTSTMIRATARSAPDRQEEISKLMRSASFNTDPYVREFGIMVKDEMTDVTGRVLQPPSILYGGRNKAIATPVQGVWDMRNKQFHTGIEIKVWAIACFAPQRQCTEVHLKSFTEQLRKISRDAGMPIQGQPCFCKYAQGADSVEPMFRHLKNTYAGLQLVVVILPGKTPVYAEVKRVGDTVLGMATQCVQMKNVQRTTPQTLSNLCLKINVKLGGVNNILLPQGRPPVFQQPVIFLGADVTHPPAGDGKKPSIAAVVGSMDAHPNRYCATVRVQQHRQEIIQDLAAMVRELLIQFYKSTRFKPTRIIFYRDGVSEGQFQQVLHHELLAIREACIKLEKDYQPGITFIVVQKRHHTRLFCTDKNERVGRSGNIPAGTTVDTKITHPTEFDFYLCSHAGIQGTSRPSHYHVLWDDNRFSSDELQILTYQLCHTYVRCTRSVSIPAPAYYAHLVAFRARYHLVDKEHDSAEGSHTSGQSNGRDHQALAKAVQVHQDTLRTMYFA

FH-AGO2 (Flag-HA-tagged wild type AGO2 expressed in MCF-7 cells), sequence (Q9UKV8 whole entry): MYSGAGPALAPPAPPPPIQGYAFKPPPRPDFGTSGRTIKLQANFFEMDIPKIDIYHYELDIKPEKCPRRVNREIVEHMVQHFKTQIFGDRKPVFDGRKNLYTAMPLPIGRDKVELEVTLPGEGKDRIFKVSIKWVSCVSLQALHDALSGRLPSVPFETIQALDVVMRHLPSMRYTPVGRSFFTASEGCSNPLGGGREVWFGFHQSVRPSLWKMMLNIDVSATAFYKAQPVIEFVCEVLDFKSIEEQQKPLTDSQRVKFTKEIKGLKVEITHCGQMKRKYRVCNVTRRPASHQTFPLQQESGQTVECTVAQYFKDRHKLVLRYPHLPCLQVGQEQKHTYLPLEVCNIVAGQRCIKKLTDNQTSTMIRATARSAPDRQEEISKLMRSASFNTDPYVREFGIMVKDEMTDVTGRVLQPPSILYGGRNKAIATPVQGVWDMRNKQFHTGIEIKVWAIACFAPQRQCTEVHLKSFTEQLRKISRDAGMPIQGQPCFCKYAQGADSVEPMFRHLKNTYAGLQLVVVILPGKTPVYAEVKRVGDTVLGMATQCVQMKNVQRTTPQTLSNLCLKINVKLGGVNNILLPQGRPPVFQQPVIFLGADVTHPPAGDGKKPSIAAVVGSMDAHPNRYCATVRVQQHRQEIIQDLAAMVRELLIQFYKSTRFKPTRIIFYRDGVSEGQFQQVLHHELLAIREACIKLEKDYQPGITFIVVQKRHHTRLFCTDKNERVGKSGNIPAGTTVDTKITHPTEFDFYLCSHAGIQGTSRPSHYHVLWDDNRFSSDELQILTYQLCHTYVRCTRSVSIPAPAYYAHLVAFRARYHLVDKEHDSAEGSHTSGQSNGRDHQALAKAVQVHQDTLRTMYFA

Row | Substance | K726me1 level on FH-AGO2 in in vitro demethylation assay (immunoblot) [1] | K726me1 level in in vitro demethylation assay (immunoblot) (FH-AGO2-K726R)
1 | FH-LSD1 (Flag-HA-tagged wild type LSD1 expressed in MCF-7 cells) | FH-LSD1 but not FH-LSD1-K661A decreased K726mel level on FH-AGO2 | had no observable effects on FH-AGO2-K726R
2 | FH-LSD1-K661A (catalytically compromised LSD1) | FH-LSD1 but not FH-LSD1-K661A decreased K726mel level on FH-AGO2 | 
